Measured values from patent US20020001806A1, “Caspase-3s splicing variant” (priority 2000, published 2002).
Entries after “also recorded” stand apart in the source; their conditions may differ.

B1: caspase-3s: novel splicing variant of caspase-3, C-terminal truncated, 182 amino acids (SEQ ID No. 2); tested as transfected pcDNA3 cDNA construct (protein, listed as Homo sapiens)
chain: MENTENSVDSKSIKNLEPKIIHGSESMDSGISLDNSYKMDYPEMGLCIIINNKNFHKSTGMTSRSGTDVDAANLRETFRNLKYEVRNKNDLTREEIVELMRDVSKEDHSKRSSFVCVLLSHGEEGIIFGTNGPVDLKKITNFFRGDRCRSLTGKPKLFIIQVIILGEIQRMAPGSSSRFVPC
B2: caspase-3: full length caspase-3 (32 kDa) cDNA in pcDNA3 vector transfected into 293 cells (protein, UniProt P42574 1-277, looked up)
chain: MENTENSVDSKSIKNLEPKIIHGSESMDSGISLDNSYKMDYPEMGLCIIINNKNFHKSTGMTSRSGTDVDAANLRETFRNLKYEVRNKNDLTREEIVELMRDVSKEDHSKRSSFVCVLLSHGEEGIIFGTNGPVDLKKITNFFRGDRCRSLTGKPKLFIIQACRGTELDCGIETDSGVDDDMACHKIPVEADFLYAYSTAPGYYSWRNSKDGSWFIQSLCAMLKQYADKLEFMHILTRVNRKVATEFESFSFDATFHAKKQIPCIVSMLTKELYFYH
modifications: full-length
notes: full length caspase-3 (32 kDa) cDNA in pcDNA3 vector transfected into 293 cells

Legend:
Format in all cases: cell-based, human
endogenous caspase-3 = experiment: Western blot (anti-caspase-3) of endogenous caspase-3 in untransfected 293 cells after IGAL treatment; details: 5 μM IGAL, 48 hours
Experimental: (§1) FIG. 6. A. 293 cells were transfected with flag-tagged caspase-3, flag-tagged caspase-3s or pcDNA3 vector, followed by IGAL treatment for 16 hours or left untreated (control). Fifty microgram of total cellular protein was assayed for caspase-3 and caspase-3s expression using antibody specific for flag-tag. The asterisk (*) indicates the N-terminal flag-tag containing activated capase-3 (20 kDa). The uppermost and lowest short arrow denote the two additional bands, 40 kDa and 14 kDa, respectively. […] 293 cells were treated with 5 μM IGAL for 48 hours. Total cell lysates were isolated and assayed for caspase-3 expression by Western blotting. The blot was probed with anticaspase-3 antibody (Pharmingen). […]
Evidence that the levels of endogenous caspase-3 and caspase-3s are regulated by proteasome degradation was also sought. Untransfected 293 cells were subjected to IGAL treatment and the cell samples were analyzed on Western blots probed with anticapase-3 antibody (Pharmingen). […] In parallel, a faint immunoreactive band of 20 kDa (p20) was detected only in the presence of IGAL treatment (FIG. 6B).

[1] = test system: caspase-3 and caspase-3s expression; experiment: Western blot (anti-flag) of recombinant caspase-3 and caspase-3s in transfected 293 cells after IGAL treatment; details: IGAL treatment 16 hours
Experimental: as §1
Proteasome appears to regulate caspase-3 potentially in two ways. […] To examine the effects of proteasome inhibitor on the expression of caspase-3 and caspase-3s, total cellular protein from transfected 293 cells treated with proteasome inhibitor IGAL were analyzed by Western blotting probed with the N-terminal antiflag antibody. […] In addition, we reproducibly detected two additional bands with a size of 40 kDa and 14 kDa, respectively, after IGAL treatment (FIG. 6B, lane 6). […]

293 cells [2] = experiment: DNA fragmentation ELISA (Cell Death Detection ELISA) in transfected 293 cells; details: for apoptosis induced by staurosporine (DNA fragmentation): 0.5 μM staurosporine, 20 hours; for DNA fragmentation (basal apoptosis): untreated, vs vector and caspase-3s
Experimental: (§2) Human embryonal kidney 293 cells were seeded 1×10^5 into each well of a 24-well plate and transfected with caspase-3 and caspase-3s cDNA constructs by calcium phosphate method (Sun Y., Bian J., Wang Y., Jacobs C. Oncogene 1997;14:385-93;14: 385-393). Briefly, 500 nanogram of DNA was incubated in 0.25 M CaCl2 solution for 10 minutes at room temperature. The mixture was then incubated with 1×HEPES buffer (pH 6.88) for 15 minutes at room temperature before being added to the culture medium. After 6 to 7 hours transfection, transfection medium was replaced with fresh Opti-MEMI medium (GIBCO) containing 5 μM of Proteasome Inhibitor I (Z-Ile-Glu(otBu)-Ala-Leu-CHO) (Calbiochem) and incubated for 16 hours. For staurosporine treatment, cells were allowed to grow for 24 hours in serum containing medium after transfection. Cells then incubated with 0.5 μM staurosporine (Calbiochem) in Opti-MEMI medium for 20 hours.
DNA fragmentation ELISA was performed using the Cell Death Detection ELISA kit (Boehringer Mannheim) following the instruction provided by the supplier. Briefly, after 16 hours treatment with IGAL (Proteasome Inhibitor I), 293 cells were lysed by incubation with 500 μL of cell lysis buffer for 2 hours at room temperature. The lysate were then centrifuged at 200×g for 10 minutes. Twenty microliter of the supernatant were transferred into the streptavidin coated microtiter plate for analysis using the reagents provided with the assay kit. Statistical analyses were performed with student t-test using Microsoft Excel analysis tools.

PARP = PARP cleavage to 85 kDa breakdown product by Western blot in transfected 293 cells; details: for PARP cleavage (Western blot): IGAL treatment 16 hours, vs vector control; for PARP breakdown product (85 kDa), densitometric quantification: normalized to vector control, n=8
Experimental: as §2
Preparation of whole cell lysates and Western blotting were performed as previously described (McGinnis K. M., Gnegy M. E., Wang K. K. W. Endogenous bax translocation in SH-SY5Y human neuroblastoma cells and cerebellar granule neurons undergoing apoptosis. J. Neurochem. 1999;72:1899-1906; Huang Y., Domann F. E. Transcription factor AP-2 mRNA and DNA binding activity are constitutively expressed in SV40-immortalized but not normal human lung fibroblasts. Arch. Biochem. Biophys. 1999;364: 241-246). The blots were probed with antihuman caspase-3 p20 goat polyclonal antibody (Santa Cruz, CAT #sc-1226), antihuman caspase-3 rabbit polyclonal antibody (Pharmingen, CAT #65906E), antiflag monoclonal antibody (Sigma, CAT #F3165), or antihuman monoclonal PAPR antibody (Biomol Research Laboratories, Inc CAT #SA-250).
It is known that cleavage of caspase-3 substrates, such as poly(ADP)ribose polymerase (PARP), is prerequisite for apoptosis. Therefore, the effects of caspase-3s overexpression on PARP cleavage in both control and IGAL treated 293 was examined, along with caspase-3 overexpression as positive control. Cleavage of PARP to an immunoreactive breakdown product (85 kDa) was measured by Western blot.

293 cells [3] = experiment: Cytotox 96 colorimetric LDH release cytotoxicity assay in transfected 293 cells; details: for apoptosis / cell death (LDH release) induced by proteasome inhibitor I: 5 μM proteasome inhibitor I, 12 hours, vs vector
Experimental: The following experiments were performed to test the hypothesis that caspase-3s acts as a dominant negative isoform of caspase-3. The pcDNA empty vector, caspase-3, and caspase-3s constructs were transfected into 293 cells using the method described above (Sun et al., Supra., 1997). After 6 to 7 hours transfection, transfection medium was replaced with fresh medium containing 5 μM of proteasome inhibitor I (Z-Ile-Glu(otBu)-Ala-Leu-CHO) (Calbiochem). Cells were then incubated for 12 hours. Twenty-five microliter of the culture medium was subjected to cytotoxicity assay using the Cytotox 96 colorimetric LDH assay kit (Promega) according to manufacturer's instruction. Statistics were performed with t-test using Microsoft Excel analysis tools.
For control cells, lactate dehydrogenase (LDH) release in caspase-3 transfected cells was compared with both vector and caspase-3s transfected cells. For proteasome inhibitor treated cells, LDH release was compared between vector and caspase-3s transfected cells.

Molecule	endogenous activated caspase-3 (p17) (endogenous caspase-3)	levels of endogenous full-length caspase-3 (p32) (endogenous caspase-3)	amount of recombinant caspase-3s ([1]; flag-tagged caspase-3s transfected 293 cells)	abundance of recombinant full length caspase-3 (32 kDa band) ([1]; flag-tagged caspase-3 transfected 293 cells)	apoptosis induced by staurosporine (DNA fragmentation) (293 cells [2])	DNA fragmentation (apoptosis) induced by IGAL (293 cells [2]; 5 μM IGAL, 16 hours, vs vector control and caspase-3, n=4)	PARP cleavage (Western blot) (PARP)	PARP cleavage (Western blot) (PARP; listed as Caspase-3s)	PARP breakdown product (85 kDa), densitometric quantification (PARP)	apoptosis / cell death (LDH release) induced by proteasome inhibitor I (293 cells [3])	apoptosis / cell death (LDH release) induced by proteasome inhibitor I (293 cells [3]; listed as Caspase-3s)	DNA fragmentation (basal apoptosis) (293 cells [2])	DNA fragmentation (basal apoptosis) (293 cells [2]; listed as capase-3)	basal PARP cleavage (Western blot) (PARP; nontreated)	apoptosis (LDH release) (293 cells [3]; untreated condition, vs vector and caspase-3s transfected cells)
Z-Ile-Glu(otBu)-Ala-Leu-CHO [IGAL]	appearance of the 17 kDa activated caspase-3 (p17)	remain the same; also recorded: stabilized endogenous caspase-3 expression	dramatic increase	decrease in the abundance	–	–	–	–	–	–	–	–	–	–	–
B1	–	–	–	–	no significant effect	partially but significantly inhibited apoptosis; also recorded: significantly (# p<0.05) inhibited DNA fragmentation	partially but significantly inhibited the cleavage of PARP	partially inhibited PARP cleavage	significantly decreased	significantly inhibited; also recorded: inhibits apoptotic cell death	inhibits cell death	–	–	–	–
B2	–	–	–	–	did not reduce	–	enhanced by IGAL treatment	–	increased PARP cleavage	underwent substantial apoptosis	–	significantly increased DNA fragmentation	induced basal apoptosis	increased basal PARP cleavage	significantly increased apoptosis
